Results reported in patent US12351605B2, “Optically controllable FGFR stimulation using wireless controlled cellular lighting system” (THE JOHNS HOPKINS UNIVERSITY, priority 2020, dated 2025).
Read-outs that look alike come from different tables or passages of the source.

What was measured:
FGF signaling pathway = test: Western blot of ERK1/2 and MEK phosphorylation in Opto-FGFR hESCs; format: cell-based, human; conditions: 10 ng/mL FGF2 after 24 h FGF2 starvation; 15 min intervals up to 120 min
Protocol: Western blot analysis. The phosphorylation status of MEK and ERK1/2 were determined by Western blot analysis. The cells were starved from FGF2 protein for 24 h, and then exposed to either FGF2 protein or blue light illumination. One μg aliquots of whole cell lysates were loaded onto 4-20% gradient SDS-PAGE gels and then transferred to nitrocellulose membranes (Bio-Rad) using the Trans-Blot® Turbo™ Transfer System (Bio-Rad). The detection of phosphorylated ERK1/2 proteins (42 and 44 kDa) was performed using a phospho-ERK1/2 antibody (Cell Signaling), total ERK1/2 expression level was determined using a total […] antibody (Cell Signaling), detection of pMEK protein (45 kDa) was performed using a pMEK1/2 antibody (Cell Signaling), and total MEK expression level was determined using a total MEK1/2 antibody (Cell Signaling). The expression levels are quantified by normalizing to GAPDH expression (Cell Signaling). Following the primary antibody incubation, the membranes were incubated with the appropriate secondary antibodies and subsequently visualized with an ECL kit (Pierce).
Generation of a light-inducible FGF signaling system. […]

[1] = daily feeding condition, cited from earlier work

Question: For “FGF2: recombinant fibroblast growth factor 2 protein, medium component for maintaining pluripotency of PSCs”, which “activation of FGF signaling (phosphorylation of ERK1/2 and MEK)” value (FGF signaling pathway) is on record?
Answer: Its value is “activated FGF signaling”.

Question: What about the “decrease of FGF2 protein concentration” value ([1]; 4 h after the initial feeding) of the same substance?
Answer: Its value is “approximately 40%”.

Question: What about the “decrease of FGF2 protein concentration” value ([1]; 24 h after the initial feeding) of the same substance?
Answer: Its value is “approximately 10%”.
